Reference: paper doi:10.1101/2023.12.04.569983

Tests used:
[1] = test system: HP1α-16aa-mEGFP; assay: EMSA; details: 20 mM HEPES pH 7.5, 70 mM KCl, 1 mM DTT
[2] = test system: HP1α (untagged, wt); assay: EMSA; details: 20 mM HEPES pH 7.5, 70 mM KCl, 1 mM DTT

187 bp DNA showed a K half [1] of 580 nM and a K half [2] of 880 nM.
